In assay [1] the target is T1, Human Granzyme B (Homo sapiens, UniProt P10144). The experiment in a line: Binding of scrambled control peptide to human granzyme-B (method not given). Also noted: Ten million human peripheral blood mononuclear cell (PBMC) were engrafted in immunocompromised NOG (NOD/Shi-scid/IL-2Rγ) mice; endogenous in cells; host or cells: human PBMC (donor-derived) engrafted in NOG mice.

The target of assay [2] is T1, Human Granzyme B. Type of assay: in vivo. Particulars: 18F-labeled peptides, i.v., mice, static PET/CT 1 h after injection. Also noted: Ten million human peripheral blood mononuclear cell (PBMC) were engrafted in immunocompromised NOG (NOD/Shi-scid/IL-2Rγ) mice; endogenous in cells; host or cells: human PBMC (donor-derived) engrafted in NOG mice. The method, then:
Diseased model: Graft versus host disease (GvHD) model was selected to evaluate radiolabeled granzyme-B peptides due to presence of human granzyme-B after onset of disease. Ten million human peripheral blood mononuclear cell (PBMC) were engrafted in immunocompromised NOG (NOD/Shi-scid/IL-2Rγ) mice. Body weight was monitored routinely, once the mice started to lose weight (indication of onset of disease), PET/CT scans were performed. To determine target specificity, NOG mice without human PBMC were used as control. […] Mice were intravenously injected with approximately 150 uCi (35 Ci/mmol) of ^18F-labeled peptides and 45-minute whole body static PET/CT scans were performed 1 h after injection. Attenuation correction was performed using low-dose CT scan.

Assay [3] deals with T2, human Granzyme B (human, UniProt P10144 21-247).
T2 construct: Captured on a Series S Streptavidin chip for SPR; also called hGranzyme B; GzmB
The experiment in a line: SPR, Biacore 8k+, hGranzyme B captured on SA chip, single cycle kinetics, 1:1 model; Compound 86a, observed m/z 912.9. The protocol:
(§1) The kinetics of test peptide binding to human Granzyme B (hGranzyme B) was determined by SPR. All experiments were performed at 25° C. using the Biacore 8k+ instrument (Cytiva, Marlborough, MA). The Biacore 8k+ Insight Evaluation Software Version 3.0 was used to fit the data with a 1:1 binding model to determine the association rate constant kₐ (M⁻¹s⁻¹, where “M” ~equals molar and “s” ~equals seconds) and the dissociation rate constant kd (s⁻¹). These rate constants were used to calculate the equilibrium dissociation constant. KD (M)=kd/kₐ.
(§2) To measure the binding kinetics of peptides of interest, surfaces were prepared by a capture method to a Series S Streptavidin (SA) chip using a 1×HBS-EP+ running buffer (Cytiva). hGranzyme B was diluted to 10 μg/mL in IX HBS-EP+ and flowed over spot 2 of each flow cell on the chip at a flow rate of 10 ul/min for 20 s to achieve a level of capture of ~1100 RU. […] Binding kinetics were measured using single cycle kinetics at 25° C. by injecting 5 concentrations with 3-fold serial dilutions of test peptides from 0.01 μM to 1 μM. […]
(§3) Peptide dilution series included 2 zero concentration points (no compound) which were averaged and subtracted from the peptide concentration injection as DMSO control responses. […] Corrected response data were analyzed using the Biacore 8k+ Evaluation Software Version 3.0 according to the manufacturer. […]

Assay [4] has as its target T2, human Granzyme B. As to the kind of experiment: SPR, Biacore 8k+, hGranzyme B captured on SA chip, single cycle kinetics, 1:1 model; Compound 40a, observed m/z 915.0. The protocol: as §1, §2, §3
In assay [5] the target is T2, human Granzyme B. The experiment in a line: SPR, Biacore 8k+, hGranzyme B captured on SA chip, single cycle kinetics, 1:1 model; Compound 41a, observed m/z 912.9. The protocol:
as §1, §2, §3
Background: Surface plasmon resonance follows binding to a sensor surface in real time, without labels.

The target of assay [6] is T2, human Granzyme B. As to the kind of experiment: SPR, Biacore 8k+, hGranzyme B captured on SA chip, single cycle kinetics, 1:1 model; Compound 83a, observed m/z 913.2. The protocol: as §1, §2, §3
The target in assay [7] is T2, human Granzyme B. The experiment in a line: SPR, Biacore 8k+, hGranzyme B captured on SA chip, single cycle kinetics, 1:1 model; Compound 42a, observed m/z 944.0. The protocol: as §1, §2, §3
Assay [8] deals with T2, human Granzyme B. The experiment in a line: SPR, Biacore 8k+, hGranzyme B captured on SA chip, single cycle kinetics, 1:1 model; Compound 62a, observed m/z 914.7. The method, then: as §1, §2, §3
Assay [9] deals with T2, human Granzyme B. The experiment in a line: SPR, Biacore 8k+, hGranzyme B captured on SA chip, single cycle kinetics, 1:1 model; Compound 66a, observed m/z 912.5. The protocol: as §1, §2, §3
In assay [10] the target is T2, human Granzyme B. As to the kind of experiment: SPR, Biacore 8k+, hGranzyme B captured on SA chip, single cycle kinetics, 1:1 model; Compound 69a, observed m/z 912.6. The method, then:
as §1, §2, §3

Assay [11] concerns the target T2, human Granzyme B. The experiment in a line: SPR, Biacore 8k+, hGranzyme B captured on SA chip, single cycle kinetics, 1:1 model; Compound 38a, observed m/z 914.7. The protocol:
as §1, §2, §3

In assay [12] the target is T2, human Granzyme B. As to the kind of experiment: cell-based or functional assay.

Bridge positions count the residues as written; N and C are the ends. Square brackets hold non-standard residues; d marks the D form. NOTA‑1 = 1,4,7-triazacyclononane-N,N',N''-triacetic acid phenyl thiourea; Pro(trans-4-Ph) = O=C(O)[C@@H]1C[C@@H](c2ccccc2)CN1; Trp(7-Me) = Cc1cccc2c(C[C@H](N)C(=O)O)c[nH]c12; Pro(trans-4-F) = O=C(O)[C@@H]1C[C@@H](F)CN1; Pro(cis-4-F) = O=C(O)[C@@H]1C[C@H](F)CN1; Phe(4-F) = N[C@@H](Cc1ccc(F)cc1)C(=O)O; Phe(4-Me) = Cc1ccc(C[C@H](N)C(=O)O)cc1; Pro(4S-Me) = C[C@@H]1CN[C@H](C(=O)O)C1; Pro(4R-Me) = C[C@H]1CN[C@H](C(=O)O)C1

T2 sequence (P10144 21-247 limits assumed): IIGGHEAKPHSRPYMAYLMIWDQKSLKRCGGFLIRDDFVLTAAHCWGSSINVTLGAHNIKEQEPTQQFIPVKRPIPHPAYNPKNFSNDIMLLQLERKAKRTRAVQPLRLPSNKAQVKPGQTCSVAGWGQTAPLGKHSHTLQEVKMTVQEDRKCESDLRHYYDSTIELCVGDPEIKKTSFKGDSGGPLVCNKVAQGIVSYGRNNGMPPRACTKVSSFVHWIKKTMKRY
T1 sequence (P10144 21-247): as the sequence (P10144 21-247 limits assumed) above

For “*F.Q.W.Q.A.S.N.E.D.D.T.P.F.*C.G.G.K(NOTA-1)·NH2) ({CH2CO}-FQWQASNEDDTPFCGGK(NOTA‑1)-NH2; thioether N-14) [scrambled peptide, 18F-labeled scrambled peptide used as negative control, reference compound]”, the “binding to human granzyme-B” value with Human Granzyme B [1] is on record as “minimal/no binding”. Besides, the “uptake (SUVmean) in lung, liver and bone, GvHD model versus NOG control” value with Human Granzyme B [2] was “No significant difference was observed between lung, liver, and bone in GvHD model and NOG control”.

As usually defined, the Kd is a measure of binding affinity in units of concentration. High values mean lower affinity, low ones higher affinity. In the assay with human Granzyme B [3], {CH2CO}-FN[Phe(4-Me)]EDQSPDTWQPCG-NH2 (thioether N-14) [Compound 86a] came in with a Kd of 579 nM. This lies in the sub-micromolar range.

For {CH2CO}-FN[Phe(4-F)]EDQSPDTWQPCG-NH2 (thioether N-14) [Compound 40a], the Kd in the assay with human Granzyme B [4] is 1.8 nM.

As to {CH2CO}-FNFEDQSPDTWQ[Pro(4S-Me)]CG-NH2 (thioether N-14) [Compound 41a], the Kd with human Granzyme B [5] came to 2.5 nM.

Consider {CH2CO}-FNFEDQS[Pro(4R-Me)]DTWQPCG-NH2 (thioether N-14) [Compound 83a], for which the Kd with human Granzyme B [6] came to 48 nM.

In the assay with human Granzyme B [7], {CH2CO}-FNFEDQSPDTWQ[Pro(trans-4-Ph)]CG-NH2 (thioether N-14) [Compound 42a] came in with a Kd of 2.6 nM.

On to {CH2CO}-FNFEDQS[Pro(cis-4-F)]DTWQPCG-NH2 (thioether N-14) [Compound 62a], for which the Kd with human Granzyme B [8] turned out to be 6.7 nM.

In the assay with human Granzyme B [9], {CH2CO}-FNFEDQSPDT[Trp(7-Me)]QPCG-NH2 (thioether N-14) [Compound 66a] registered a Kd of 11.1 nM.

As for {CH2CO}-FNFEDQS[Pro(4S-Me)]DTWQPCG-NH2 (thioether N-14) [Compound 69a], the Kd in the assay with human Granzyme B [10] was determined as 17.2 nM.

B1: Compound 38a (peptide)
peptide: {CH2CO}-FNFEDQS[Pro(trans-4-F)]DTWQPCG-NH2
modifications: thioether N-14
SMILES: C[C@@H](O)[C@@H]1NC(=O)[C@H](CC(=O)O)NC(=O)[C@@H]2C[C@@H](F)CN2C(=O)[C@H](CO)NC(=O)[C@H](CCC(N)=O)NC(=O)[C@H](CC(=O)O)NC(=O)[C@H](CCC(=O)O)NC(=O)[C@H](Cc2ccccc2)NC(=O)[C@H](CC(N)=O)NC(=O)[C@H](Cc2ccccc2)NC(=O)CSC[C@@H](C(=O)NCC(N)=O)NC(=O)[C@@H]2CCCN2C(=O)[C@H](CCC(N)=O)NC(=O)[C@H](Cc2c[nH]c3ccccc23)NC1=O
B1 had a Kd in the assay with human Granzyme B [11] of 0.7 nM. The “Human Granzyme B IC50 (fluorogenic substrate enzyme inhibition assay)” value in the assay with human Granzyme B [12] is below 8 nM.
